Data taken from patent publication US11319366B2, “Antibody facilitating programmed necrosis of cells and application thereof” (SHANGHAI JW INFLINHIX CO., LTD., priority 2015, dated 2022).
“Also recorded” adds a separate entry of the source.

B1: 244-12: anti-TNF monoclonal antibody specifically binding QLVVPSE; light chain SEQ ID NO: 10, heavy chain SEQ ID NO: 21 (antibody, listed as Homo sapiens)
heavy: QIQLVQSGPELKKPGETVKISCKASGYTFTNYGMNWVKQAPGKGLKWMGWINTYTGEPTYADDFKGRFAFSLETSANTAYLQINNLRNEGMATYFCARHYRYAWFPYWGQGTLVTVSAAKTTPPSVYPLAPGCGDTTGSSVTLGCLVKGYFPESVTVTWNSGSLSSSVHTFPALLQSGLYTMSSSVTVPSSTWPSQTVTCSVAHPASSTTVDKKLEPSGPISTINPCPPCKECHKCPAPNLEGGPSVFIFPPNIKDVLMISLTPKVTCVVVDVSEDDPDVQISWFVNNVEVHTAQTQTHREDYNSTIRVVSTLPIQHQDWMSGKEFKCKVNNKDLPSPIERTISKIKGLVRAPQVYILPPPAEQLSRKDVSLTCLVVGFNPGDISVEWASNGHTEENYKDTAPVLDSDGSYFIYSKLNMKTSKWEKTDSFSCNVRHEGLKNYYLKKTISRSPGK
light: DIQMTQSPASLSASVGETVTITCRASGNIHIYLAWYQQKQGKSPQLLVYNAKTLADGVPSRFSGSGSGTQYSLKINSLQPEDFGSYYCQHFWSIPWTFGGGTKLEIKRADAAPTVSIFPPSSEQLTSGGASVVCFLNNFYPKDINVKWKIDGSERQNGVLNSWTDQDSKDSTYSMSSTLTLTKDEYERHNSYTCEATHKTSTSPIVKSFNRNEC

How the values were obtained:
L929 cells = test: Apoptosis and necrosis assay (live/dead staining, active caspase-3, flow cytometry) in L929 cells; type: cell-based, mouse
Experimental: (§1) The cells were stained with live/dead cell staining kits (Invitrogen, Paisley, UK) instructed by the manufacturer's manual and fixed using cytofix/cytoperm fixation/permeabilization solution kits (BD Pharmingen, Oxford, UK). This was followed by intracellular staining with FITC-conjugated anti-caspase-3 antibody (Cell Signaling Technology, Danvers, Mass., USA). Cells were acquired on a CyAn flow cytometer (Beckman Coulter, Fullerton, Calif.) and data were analyzed using Flowjo (Tree Star Inc. Ashland, Oreg.).

TNF [1] = target: T1, TNF (Homo sapiens, UniProt P01375); test: ELISA screening of monoclonal antibodies for binding to TNF; conditions: among 33 monoclonal antibodies
T1 construct: purchased Immunotools (Germany)
T1 sequence (P01375 77-233 limits assumed): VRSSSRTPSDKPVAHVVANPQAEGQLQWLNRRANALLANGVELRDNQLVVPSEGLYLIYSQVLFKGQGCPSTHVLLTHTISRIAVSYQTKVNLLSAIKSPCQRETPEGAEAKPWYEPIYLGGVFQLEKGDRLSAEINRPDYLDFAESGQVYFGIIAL
Experimental: A second antibody conjugated with HRP was used to detect the reaction. For the inhibition assay, TNFR1 or synovial fluids were added together with monoclonal antibodies.

[2] = tested on: C28I2 cells (chondrocytes); test: Apoptosis assay (active caspase-3) in C28I2 cells; type: cell-based, human; conditions: C28I2 cells stimulated by TNF
Experimental: as §1

TNF [3] = target: T1, TNF; test: Identification of binding epitope of the monoclonal antibody
[4] = tested on: TNF receptors on L929 cells; test: L929 cells immunofluorescence (confocal) microscopy of TNF/antibody binding to TNF receptors; type: cell-based, mouse
Experimental: The cells were fixed with 4% paraformaldehyde (in PBS) for 10 min, blocked in a phosphate-buffer containing 0.5% BSA and 0.1% cold water fish-gelatin for 15 min and subsequently incubated with rabbit anti-TNFR1 antibodies (Abcam) for 1 hour. The cells were extensively washed in PBS and then incubated with the relevant secondary antibodies, which were conjugated with Alexa Fluor 488 or Alexa Fluor 568 21 (Invitrogen). PBS-washed specimens were then mounted in Gelvatol/DABCO (Sigma-Aldrich). DNA was counterstained with DAPI (Sigma-Aldrich). All samples were analyzed by fluorescent microscopy using a Nikon Eclipse 80i at 60×. Images were acquired with NIS-Elements AR3.0 software using a Hamamatsu camera.

Molecule	effect on necrosis caused by 244-12+TNF (L929 cells; L929 cells, added into 244-12+TNF)	TNF-induced apoptosis (active caspase-3 expression) (L929 cells; L929 cells stimulated by TNF)	cell fate (apoptosis / survival / necrosis) of L929 cells (L929 cells; L929 cells, TNF alone or antibody added with TNF)	binding to TNF by ELISA (TNF [1])	TNF-induced apoptosis (active caspase-3 expression) [2]	binding epitope (TNF [3])	effect on binding of TNF to TNF receptors ([4]; confocal microscopy, in the presence of TNF)	direct binding of antibody to cell surface ([4]; in the absence of TNF)
CN1C(=O)C(Cc2c[nH]c3ccccc23)NC1=S (centres unmarked) [Nec-1, Necrostatin-1, reference compound]	cell necrosis was conversed into apoptosis; also recorded: cell necrosis transformed into apoptosis							
B1		apoptosis was inhibited; also recorded: blocks TNF-induced apoptosis	necrosis of L929 cells occurred; also recorded: necrosis of L929 cell	bound TNF the strongest	blocks TNF-induced apoptosis	QLVVPSE	does not affect the binding of TNF to cell surface receptors	can not directly bind to cell surface
